The target in the data set is T1, MgaSpn (Streptococcus pneumoniae D39 (JH1900)) (UniProt A0A0H2ZN44).
T1 sequence: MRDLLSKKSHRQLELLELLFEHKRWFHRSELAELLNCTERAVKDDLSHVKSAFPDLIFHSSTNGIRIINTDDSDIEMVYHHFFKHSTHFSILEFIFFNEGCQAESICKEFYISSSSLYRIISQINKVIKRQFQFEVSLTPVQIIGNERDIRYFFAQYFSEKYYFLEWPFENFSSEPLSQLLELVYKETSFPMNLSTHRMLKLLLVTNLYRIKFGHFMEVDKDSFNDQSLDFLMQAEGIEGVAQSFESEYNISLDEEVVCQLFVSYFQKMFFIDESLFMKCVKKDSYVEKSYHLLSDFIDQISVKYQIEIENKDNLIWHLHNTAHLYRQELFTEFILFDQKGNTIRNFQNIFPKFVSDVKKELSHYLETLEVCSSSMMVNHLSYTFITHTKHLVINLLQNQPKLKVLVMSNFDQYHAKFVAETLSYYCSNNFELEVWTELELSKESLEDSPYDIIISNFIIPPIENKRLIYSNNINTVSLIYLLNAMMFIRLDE
Put plainly: EMSA.

As for “TACACATCTGCTTCTAAAATATTGTTAGAAAACGATTTGACTGTCCTGATCAATTTGTCATGTTCTTATTTCATTTTACTATATTTTTGGTTCGCGGGAAGTCTACTAAGATACTTAAAGATGCAGATAGTGAAAAAAGGTGTAGACATTACCGTAAAAAAGTGATATAATCGTAAGATGTTCAATGTATAGGTGTTAATCATGAGTAGACGTTTTAA (double strand) [Pcps probe (EMSA)]”, the binding result is on record as “binds”.

The values above are taken from article PMC8437459.
